What was measured:
[1] = molecular target: GST-EnaEVH1 (Drosophila); test: pull-down; purified proteins; DiaFH1-Cterm and glutathione-Sepharose beads constant, increasing GST-EVH1, 20 min at 25°; supernatants by SDS-PAGE, bound fraction fit to a quadratic equation
[2] = molecular target: DiaFH1FH2 (Drosophila)
[3] = molecular target: Mg-ATP-actin (actin filament barbed ends) (UniProt P68135); test: TIRF microscopy of single actin filaments; Oregon-green-labeled actin with Drosophila profilin and quantum-dot-clustered biotin-SNAP protein, flow cell at 23°C; barbed end residence time from a single exponential fit

Substance: DiaFH1-carboxyl-terminus (Cterm) (domain or fragment)
- Kd [1]: 13.3 µM

Substance: GST-EnaEVH1 (domain or fragment)
- concentration of barbed ends nucleated by 10 nM DiaFH1FH2 (from pyrene assays without profilin), 0 to 5.8 μM GST-EnaEVH1 [2]: 0.27 nM

Substance: QD-biotin-SNAP-EnaΔLinker (natural protein)
- mean barbed end residence time [3]: 95.2 s

Reference: paper PMC3992947
